In patent US20250145729A1 (DENALI THERAPEUTICS, published 2025):
Numbering of substitutions follows the chain as printed. Names may count otherwise.

B1: 42.8.96 (Fc fusion)
chain: APEAAGGPSVFLFPPKPKDTLMISRTPEVTCVVVDVSHEDPEVKFNWYVDGVEVHNAKTKPREEQYNSTYRVVSVLTVLHQDWLNGKEYKCKVSNKALGAPIEKTISKAKGQPREPQVYTLPPSRDELTKNQVSLTCLVKGFYPSDIAVEWFSEASKLSNYKTTPPVLDSDGSFFLYSKLTVDKSRWQQGNLFACEVMHEALHNHYTYKLLSLSPGK
notes: bivalent; P329G+LALA
B2: 42.8.194 (Fc fusion)
chain: B1 chain with S153Y, S156Q, L158E, S159T
notes: bivalent; P329G+LALA
B3: 42.8.157 (Fc fusion)
chain: B1 chain with S153Y, E154D, S156Q, L158E, S159N
notes: bivalent; P329G+LALA
B4: 42.8.139 (Fc fusion)
chain: B1 chain with S153Y, E154G, A155D, L158E, S159N
notes: bivalent; P329G+LALA
B5: 42.8.189 (Fc fusion)
chain: B1 chain with S153Y, A155G, L158E
notes: bivalent; P329G+LALA
B6: 42.8.185 (Fc fusion)
chain: B1 chain with S153Y, A155G, S156Q, S159T
notes: bivalent; P329G+LALA
B7: 42.8.182 (Fc fusion)
chain: B1 chain with S153Y, A155G, S156Q, L158E, S159T
notes: bivalent; P329G+LALA
B8: 42.8.207 (Fc fusion)
chain: B1 chain with S153Y, A155D, S156Q, L158E
notes: bivalent; P329G+LALA
B9: 42.8.113 (Fc fusion)
chain: B1 chain with S153Y, E154G, A155G, S156Q, S159T
notes: bivalent; P329G+LALA
B10: 42.8.149 (Fc fusion)
chain: B1 chain with S153Y, E154D, A155G, S156Q, S159T
notes: bivalent; P329G+LALA
B11: 42.8.110 (Fc fusion)
chain: B1 chain with S153Y, E154G, A155G, S156Q, L158E, S159T
notes: bivalent; P329G+LALA
B12: 42.8.195 (Fc fusion)
chain: B1 chain with S153Y, S156Q, L158E
notes: bivalent; P329G+LALA
B13: 42.8.174 (Fc fusion)
chain: B1 chain with S153Y, E154D, A155D, S156Q
notes: bivalent; P329G+LALA
B14: 42.8.187 (Fc fusion)
chain: B1 chain with S153Y, A155G, L158E, S159N
notes: bivalent; P329G+LALA
B15: 42.8.156 (Fc fusion)
chain: B1 chain with S153Y, E154D, A155G
notes: bivalent; P329G+LALA
B16: 42.8.152 (Fc fusion)
chain: B1 chain with S153Y, E154D, A155G, L158E, S159T
notes: bivalent; P329G+LALA
B17: 42.8.137 (Fc fusion)
chain: B1 chain with S153Y, E154G, A155D, S156Q, S159T
notes: bivalent; P329G+LALA
B18: 42.8.143 (Fc fusion)
chain: B1 chain with S153Y, E154G, A155D, S159T
notes: bivalent; P329G+LALA
B19: 42.8.109 (Fc fusion)
chain: B1 chain with S153Y, E154G, A155G, S156Q, L158E, S159N
notes: bivalent; P329G+LALA
B20: 42.8.212 (Fc fusion)
chain: B1 chain with S153Y, A155D, L158E, S159T
notes: bivalent; P329G+LALA
B21: 42.8.168 (Fc fusion)
chain: B1 chain with S153Y, E154D
notes: bivalent; P329G+LALA
B22: 42.8.127 (Fc fusion)
chain: B1 chain with S153Y, E154G, L158E, S159N
notes: bivalent; P329G+LALA
B23: 42.8.183 (Fc fusion)
chain: B1 chain with S153Y, A155G, S156Q, L158E
notes: bivalent; P329G+LALA
B24: 42.8.112 (Fc fusion)
chain: B1 chain with S153Y, E154G, A155G, S156Q, S159N
notes: bivalent; P329G+LALA
B25: 42.8.173 (Fc fusion)
chain: B1 chain with S153Y, E154D, A155D, S156Q, S159T
notes: bivalent; P329G+LALA
B26: 42.8.118 (Fc fusion)
chain: B1 chain with S153Y, E154G, A155G, S159N
notes: bivalent; P329G+LALA
B27: 42.8.181 (Fc fusion)
chain: B1 chain with S153Y, A155G, S156Q, L158E, S159N
notes: bivalent; P329G+LALA
B28: 42.8.159 (Fc fusion)
chain: B1 chain with S153Y, E154D, S156Q, L158E
notes: bivalent; P329G+LALA
B29: 42.8.114 (Fc fusion)
chain: B1 chain with S153Y, E154G, A155G, S156Q
notes: bivalent; P329G+LALA
B30: 42.8.192 (Fc fusion)
chain: B1 chain with S153Y, A155G
notes: bivalent; P329G+LALA
B31: 42.8.202 (Fc fusion)
chain: B1 chain with S153Y, S159N
notes: bivalent; P329G+LALA
B32: 42.8.163 (Fc fusion)
chain: B1 chain with S153Y, E154D, L158E, S159N
notes: bivalent; P329G+LALA
B33: 42.8.175 (Fc fusion)
chain: B1 chain with S153Y, E154D, A155D, L158E, S159N
notes: bivalent; P329G+LALA
B34: 42.8.199 (Fc fusion)
chain: B1 chain with S153Y, L158E, S159N
notes: bivalent; P329G+LALA
B35: 42.8.162 (Fc fusion)
chain: B1 chain with S153Y, E154D, S156Q
notes: bivalent; P329G+LALA
B36: 42.8.197 (Fc fusion)
chain: B1 chain with S153Y, S156Q, S159T
notes: bivalent; P329G+LALA
B37: 42.8.204 (Fc fusion)
chain: B1 chain with S153Y
notes: bivalent; P329G+LALA
B38: 42.8.128 (Fc fusion)
chain: B1 chain with S153Y, E154G, L158E, S159T
notes: bivalent; P329G+LALA
B39: 42.8.151 (Fc fusion)
chain: B1 chain with S153Y, E154D, A155G, L158E, S159N
notes: bivalent; P329G+LALA
B40: 42.8.213 (Fc fusion)
chain: B1 chain with S153Y, A155D, L158E
notes: bivalent; P329G+LALA
B41: 42.8.201 (Fc fusion)
chain: B1 chain with S153Y, L158E
notes: bivalent; P329G+LALA
B42: 42.8.166 (Fc fusion)
chain: B1 chain with S153Y, E154D, S159N
notes: bivalent; P329G+LALA
B43: 42.8.210 (Fc fusion)
chain: B1 chain with S153Y, A155D, S156Q
notes: bivalent; P329G+LALA
B44: 42.8.167 (Fc fusion)
chain: B1 chain with S153Y, E154D, S159T
notes: bivalent; P329G+LALA
B45: 42.8.153 (Fc fusion)
chain: B1 chain with S153Y, E154D, A155G, L158E
notes: bivalent; P329G+LALA
B46: 42.8.208 (Fc fusion)
chain: B1 chain with S153Y, A155D, S156Q, S159N
notes: bivalent; P329G+LALA
B47: 42.8.150 (Fc fusion)
chain: B1 chain with S153Y, E154D, A155G, S156Q
notes: bivalent; P329G+LALA
B48: 42.8.184 (Fc fusion)
chain: B1 chain with S153Y, A155G, S156Q, S159N
notes: bivalent; P329G+LALA
B49: 42.8.144 (Fc fusion)
chain: B1 chain with S153Y, E154G, A155D
notes: bivalent; P329G+LALA

Molecular target: T1, circularly permuted human TfR apical domain (human)
T1 construct: TfR residues 326-379 stand N-terminal to 194-296, loop 297-325 deleted; also called huTfR Apical Domain
T1 chain: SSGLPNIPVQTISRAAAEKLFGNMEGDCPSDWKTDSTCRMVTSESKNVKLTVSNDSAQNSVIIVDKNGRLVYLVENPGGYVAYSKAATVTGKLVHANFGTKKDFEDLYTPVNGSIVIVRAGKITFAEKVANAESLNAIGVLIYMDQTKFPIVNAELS
Test: SPR, supernatant, anti-Fab capture
Experimental: (§1) Clones were expressed in HEK293 cells. Supernatants were captured for SPR by GE Healthcare anti-human Fab capture kit and the affinity to human and cyno TfR apical domain was measured (Table 30). The clones in Table 30 were bivalent and each TfR-binding Fc polypeptide also contained P329G and LALA mutations.

Row | Binder | Kd [µM]
1 | B1 | 9.44
2 | B2 | 1.23
3 | B3 | 2.1
4 | B4 | 0.85
5 | B5 | 1.1
6 | B6 | 1.85
7 | B7 | 2.29
8 | B8 | 1.2
9 | B9 | 1.61
10 | B10 | 2.38
11 | B11 | 1.76
12 | B12 | 1.23
13 | B13 | 0.726
14 | B14 | 1.6
15 | B15 | 1.39
16 | B16 | 1.02
17 | B17 | 1.18
18 | B18 | 0.454
19 | B19 | 2.02
20 | B20 | 0.62
21 | B21 | 0.531
22 | B22 | 0.633
23 | B23 | 2.33
24 | B24 | 1.14
25 | B25 | 0.603

Row | Binder | Kd [µM]
26 | B26 | 0.867
27 | B27 | 2.78
28 | B28 | 1.32
29 | B29 | 1.81
30 | B30 | 0.761
31 | B31 | 0.505
32 | B32 | 1.38
33 | B33 | 1.05
34 | B34 | 0.869
35 | B35 | 1.19
36 | B36 | 0.755
37 | B37 | 0.436
38 | B38 | 0.654
39 | B39 | 1.51
40 | B40 | 0.872
41 | B41 | 0.647
42 | B42 | 0.855
43 | B43 | 0.596
44 | B44 | 0.502
45 | B45 | 1.84
46 | B46 | 0.446
47 | B47 | 2.65
48 | B48 | 1.68
49 | B49 | 0.47

Molecular target: T2, circularly permuted cyno TfR apical domain (cynomolgus monkey)
T2 construct: same design as the human construct; also called cyTfR Apical Domain; cynomolgus TfR apical domain
T2 chain: T1 chain with R39K, S45N, N47S, R69G, Y108D, T109S, N153K, E155D
Test: SPR, supernatant, anti-Fab capture
Experimental: as §1

Row | Binder | Kd [µM]
50 | B1 | 21.9
51 | B2 | 11.8
52 | B3 | 15.5
53 | B4 | 6.1
54 | B5 | 13.5
55 | B6 | 13.3
56 | B7 | 14.4
57 | B8 | 13.8
58 | B9 | 34.3
59 | B10 | 16
60 | B11 | 15.8
61 | B12 | 13.3
62 | B13 | 7.78
63 | B14 | 13.4
64 | B15 | 13.3
65 | B16 | 10.9
66 | B17 | 12.6
67 | B18 | 5.18
68 | B19 | 13.6
69 | B20 | 9.37
70 | B21 | 5.7
71 | B22 | 3.04
72 | B23 | 15.1
73 | B24 | 13.3
74 | B25 | 6.72

Row | Binder | Kd [µM]
75 | B26 | 4.29
76 | B27 | 12.1
77 | B28 | 10.8
78 | B29 | 18.3
79 | B30 | 11.3
80 | B31 | 6.27
81 | B32 | 7.82
82 | B33 | 15.8
83 | B34 | 8.05
84 | B35 | 23.2
85 | B36 | 11.4
86 | B37 | 4.63
87 | B38 | 5.45
88 | B39 | 13.1
89 | B40 | 9.79
90 | B41 | 4.91
91 | B42 | 5
92 | B43 | 7.88
93 | B44 | 6.59
94 | B45 | 14.5
95 | B46 | 7.41
96 | B47 | 11.8
97 | B48 | 17
98 | B49 | 3.87
